From the DeepSol protein solubility set

Test: soluble on expression in E. coli; label from the status in PepcDB or PDB records

Sequence	soluble on expression in E. coli
MDPFGKYIKAVSARAADKEILKKAQDGGIVSAAYIYGLESGLLDGVIIADKEDGFAAAPKVATTREEILNAAGTKYTVCPNLSVVKSAVREYGCDKLGFVGTPCQVRSIRKAIKYPVGYRHVPDKIALIMGIFCMENFPYNGMKAIVEEHCGIKMDDVVKTDIGKGKFWVYSKWGDVKTIPLKDTHPYEQGSCHVCMDYTAELADISTGSVGSPDGWSTIFVRTAKGEEYLNKMVEAGALETKEIDAVKPGLGLVEKLALTKKEKNGKEVEHRKEIGLPVPYLEHHHHHH	not soluble
MAKKTSSKGKLPPGPTPLPFIGNYLQLNTEQMYNSLMKISERYGPVFTIHLGPRRVVVLCGHDAVKEALVDQAEEFSGRGEQATFDWLFKGYGVAFSNGERAKQLRRFSIATLRGFGVGKRGIEERIQEEAGFLIDALRGTHGANIDPTFFLSRTVSNVISSIVFGDRFDYEDKEFLSLLRMMLGSFQFTATSTGQLYEMFSSVMKHLPGPQQQAFKELQGLEDFIAKKVEHNQRTLDPNSPRDFIDSFLIRMQEEEKNPNTEFYLKNLVMTTLNLFFAGTETVSTTLRYGFLLLMKHPEVEAKVHEEIDRVIGKNRQPKFEDRAKMPYTEAVIHEIQRFGDMLPMGLAHRVNKDTKFRDFFLPKGTEVFPMLGSVLRDPRFFSNPRDFNPQHFLDKKGQFKKSDAFVPFSIGKRYCFGEGLARMELFLFFTTIMQNFRFKSPQSPKDIDVSPKHVGFATIPRNYTMSFLPRHHHH	soluble
MGSDKIHHHHHHMANFIEKITYLGTPAIKAGNEHLEMIVVPEWGSNVISLVDKTTNVQLLREPETAESFHDTPTLYGIPILFPPNRISDGTFSFRGRTYHFDINEKDKHNHLHGFLYHEKWNVVTTKQTDEGVIVETEIDLSELPHVQKQFPHHAVVRMTYTIKENTLFKHATVMNKGKEAFPWGIGYHTTFIFPAESSLFSLTADQQWELDERLLPTGKLMDVPYKEALHEGMDLRHKQLDDVFLSSYQKRGGENQAVIYHQHAHISIIYKADEQFKHWVVYNADGKQGYLCPEPYTWVTNAVNLDLPSSLTGLQVLEPGEETTAKSSITIELNHQ	not soluble
MQATLIKPTIFTHQPILEKLFKSQSMTQEESHQLFAAIVRGELEDSQLAAALISMKMRGERPEEIAGAASALLADAQPFPRPDYDFADIVGTGGDGTNSINISTASAFVAASCGAKVAKHGNRSVCQPLAGSCDLLQAFGIRLDMSAEDSRQALDDLNVCFLFAPQYHTGFRHAMPVRQQLKTRTIFNVLGPLINPARPPKALIGVYSPELVLPIAQALKVLGYKNAAVVHGGGMDEVAIHTPTQVAELNNGEIESYQLSPQDFGLQSYSLNALQGGTPEENRDILARLLQGKGDAAHARQVAANVALLLKLFGQDNLRHNAQLALETIRSGTAFERVTALAARG	soluble
MKTQVAIIGAGPSGLLLGQLLHKAGIDNVILERQTPDYVLGRIRAGVLEQGMVDLLREAGVDRRMARDGLVHEGVEIAFAGQRRRIDLKRLSGGKTVTVYGQTEVTRDLMEAREASGATTVYQAAEVRLHDLQGERPYVTFERDGERLRLDCDYIAGCDGFHGISSQSIPAERLKVFERVYPFGWLGLLADTPPVSHELIYANHPRGFALCSQRSATRSRYYVQVPLTEKVEDWSDERFWTELKARLPAEVAEKLVTGPSLEKSIAPLRSFVVEPMQHGRLFLAGDAAHIVPPTGAKGLNLAASDVSTLYRLLLKAYREGRGELLERYSAICLRRIWKAERFSWWMTSVLHRFPDTDAFSQRIQQTELEYYLGSEAGLATIAENYVGLPYEEIE	soluble
MEGNGSVDMFSEVLENQFLQAAKLVENHLDSEIQKLDQIGEDELELLKEKRLAALRKAQQQKQEWLSKGHGEYREIGSERDFFQEVKESEKVVCHFYRDTTFRCKILDRHLAILAKKHLETKFLKLNVEKAPFLCERLRIKVIPTLALLRDGKTQDYVVGFTDLGNTDDFTTETLEWRLGCSDVINYSGNLMEPPFQSQKKFGTNFTKLEKKTIRGKKYDSDSDDD	soluble
MTLTVAAPCVQTVTEPSKMEMQAESTSHITIRFTEMVGDAQKPTYGSISSAGADLYSAEDVVVPANGKLCVSTGLQIELPIGYYGRVAPRSGLAAKHFIDVGAGVIDSDYRGEVKVLLFNFNTTAFEVKTGDRIAKLICEQIGNGTYEEVKSLPSTNRGAGGFGSTGESTMNSETANPATNLERITVRFTQLNENAQTPTYGSEEAAGADLYSAEDITVPAHGKCCVSTGIQMELPFGYYGRVAPRSGLAAKHFIDVGAGVIDSDYRGEVKVLLFNFTDNAFEVKKGDRIAQLICEKIGHCVYEAASELENTDRGAGGFGSTGQNTMEAEPALKKSKTEQIKTSATSVTIQITKSNDNAQMPTYGSAEAAGADLYSAEDVTVPARGKLCVSTGIQMALPIGYYGRVAPRSGLAAKHFIDVGAGVIDSDYRGEVKVLLFNFGENDFEVKKGDRIAQLVCEQIALCTYSKVESLEVTERGAGGFGSTGQYITL	not soluble
MAHHHHHHMHRGPGKRQTAPKEAAQYQFIKKWDLQMRETWDELEPFKGLPKPKVQFGNEAAEVIWPYALLLENVIKVHPYTKSIYVYYSQRQSTPLGELAARVAKRVSQAYLIPITFHNSHVYVEAEMLLEYSETPWVVVHCLDGTHKLIPVKPQAGQTVKEGAEEVLNGIVSACNEIGSAVKNPKEVMRLLSERPLQNQYVRVNYQWYGDTPEERMSHLVKWDYEPEEVVPQLRNRTQHVLDWMNYDGNLPTHNSVRVNIHREAARMRKPNVSAGPKTFFNSSGSRANARTARFDNSRSSQS	not soluble
MKKISEQKRKHLENLVDDQGIIGALAIDQRGALKRMMGKYKEVTAQEISDFKVLVSRCLTPETSAILLDPEYGLAAAENRAQTSGLLLAYEKTGYDASTPGRLPDSLDVWSVKRLKEAGADACKFLLYYDVDESEAINERKKAYIERIGSECLAEEIPFFLEIVSYDANNSDSASKEYAKVKPHKVIEAMKEFSKDRYNVDVLKVEVPVNMNFVEGFGTESLYSQDEAQAFFNMQSEATQLPFIFLSAGVSATMFQETLKFAKKAGSSFNGVLCGRATWADGVLPFVQQGAEAAVAWLETTGKTNVEELNQVLRESAVSVFEKIQ	not soluble
MNGFARRTEQKKQAIKQAVLELLQKIRDPREVTIQEIAKQAHVSPVTIYNYFGSKENLIRETLLDDVVRQVDEYEAFLKQAGSFEEKVKHTIFQEVKLFKEGWTDVMLRWMQEDEEFRRSIELLNETRVLPLVVDMIREAQKKGEVDPRLSIEALLLYLNGWRELSEKIPASLYNERLVEDMVRLFFYGIKGETR	not soluble
MPSPSGGWGCGGTWARGVDGARLFSIHHQAVRPNLSTISPPKEPPMIEVRHLCKSFARKPAVQDISFSIPAGEIVGYLGPNGAGKSTTIKVLTGLLVPDSGEVRVGGLVPWKQRRQHVARLGAVFGQRTTLWWDLPVRESLELLRHVYRVPAARFAENLAGFTELLELGPFLNTPARALSLGQRMRADLAAALLHDPELLFLDEPTVGLDVVAKERIREFVKAVNAERGVTVLLTTHDLGDVERLARRVMMIDTGRLLFDGPLAELQARYGGERELWVEFEKAPAQPALPGLTLLGQDGPRVRYGFSGAAAAPIAQVTALAPVRDLAVKEPEVEATIRRIYEGNLLGSRSVREGLEHHHHHH	not soluble
LNIHVTIREATEGDLEQMVHMLADDVLGRKRERYEKPLPVSYVRAFKEIKKDKNNELIVACNGEEIVGMLQVTFTPYLTYQGSWRATIEGVRTHSAARGQGIGSQLVCWAIERAKERGCHLIQLTTDKQRPDALRFYEQLGFKASHEGLKMHF	soluble
EVASYCDRVVAAVSSWMSTVKSTTEVSWNKLSFCDVLLKIITFGIYSPHETLAEKYSEKKLMDSFSPSLSQDKMDGEFAHANIDGISIRLCLNKGICSVFYLDGDKIQSTQLSSKEYNNLLSSLPPKQFNLGKVHTITAPVSGNFKTHKPAPEVIETAINCCTSIIPNDDYFPVKDTDFNSVWHDIYRDIRASDSNSTKIYFNNIEIPLKLIADLINELGINEFIDSKKELQMLSYNQLNKIINSNFPQQDLCFQTEKLLFTSLFQDPAFISALTSAFWQSLHITSSSVEHIYAQIMSENIENRLNFMPEQRVINNCGHIIKINAVVPKNDTAISASGGRAYEVSSSILPSHITCNGVGINKIETSYLVHAGTLPSSEGLRNAIPPESRQVSFAIISPDV	soluble
MQDPRHPQGLPLSPGLPKRQRQDRTIYNWKQQEVLENHFKEEQYPDYDTRQELAEMLNLREYQVQVWFKNRRAKRSREQWFQKQLQQLQKHPQQQHPQQQHPQQQLQQQQPQQQPQQQQPQQQQLHQQPQ	soluble
MERIAFVYMGGDEFKWLFFEVYDRVRRFMKDVNLGIIPIYAGKIKLPPGMLVRVNAGNGYIKMYPFEAVVEALYGKLVEMRDDVKDDTLTKIFGITTFPIGSRKQYFDIYKKYLGIQVSIGNYNVLALSIKPFYTENRELFVERVFKGVLHEIGHLYGLSHCKNDCVMNPPNDLKDWDRRAPSYCNSCLRELKRKVKPMPLLLHRAYECFHC	not soluble
MGLKKCGLNLSRDNKELKPHGTIDFPCAGYSSCYRDSEDDIIPWHWHPELEILYIKSGNLKLKLPEKTFHLTPGDGFIVNSNVLHYAVAEPLCELHSIVFSPLLITGWEGSVFAEKYIGPLVRCPSFDGCSLNCLFPEPEMFENLFTAAFHALAEDLPGYEFTLREALSKLCYALCLRFGPETGDDCPAPSPDAERLRRMLDYIHCHYSEPLKLSQIAEAADIGERECLRCFSRMIQVSPIQYLLKYRVNQSASLLLREPGKNITAIAGGCGFDSPGNFSRIFKRYYKCSPKEYRSRNKE	soluble
MGSDKIHHHHHHMNYIKRSLERKFLHMSKFFKAVLVTGARQVGKTTMLKHLAEGQNRTYVTLDNLMARNLAKTDPVLFFQTYKPPVLIDEVQYAPELFSQIKILCDSSEEPGLIWLTGSQQFEMMKNVRETLAGRIGIMTLYSLSKNEKDGIEFENSLDFSPECLFARQRIAEKNDVLKVFEHIWRGGMPQVLHADAEQRQEYYNAYVNTYLMRDVAELGGITDSLRFAKFLTACAALTSEQVNYKNLSEAADISQPTAKEWLRLLEGLGIVYLLQPYANNAFKRLTKAPKLYFCDTGLCAHLSMWLTPETLMNGAASGHYFENHVVAEMLKSYAYSASKAVITYFRDSNAKEIDIIVEANNQLHPLEIKKSASPNSREINKYTILDKSSIKRGHGGILCLCEEVVPIDEQNCFIPCNLI	not soluble
GPGSMSTTAHATSMGPLPYPNALQSRHTTTEQRQIAAAAVRAYQGTLEQEKVLLQENDALLSEEEAGRLQRRVDNQAAADATAAQFRDRACKVVASVPGEQHQSEGGVIDIFHAACDGDVAALDACLRSASDINALGQPDPARYNGFQFKQRWLFRAPPLVFAAAFGREEAVRLLLEHGADPHVASTTGLRAQDYAAQRGYSAIVLMLTSGAPQ	soluble
MGSDKIHHHHHHMGDKYLTLSELNLEGQLLGFVGGEPGKYKYLQLAVPSGNVEIKLPKELRRSLSLSLVPGQHIRICGHSKVDSRTSKIKIKAYRVTPIDGCPKQDLPPQIKARIMVCQKGGCLKRGGKGLLSDLEKTLCDRGLLDKVTIEHTSCQKCCNSAPNCVLHLGKKKYKNIHPDAIASLLESHLTE	not soluble
RQTRIMDSAQYAEFCESRQLSFSKKASKFRDWLDCSSMEIKPNVVAMEILAYLAYETVAQLVDLALLVRQDMVTKAGDPFSHAISATFIQYHNSAESTAACGVEAHSDAIQPCHIREAIRRYSHRIGPLSPFTNAYRRNGMAFLAC	soluble
MGSDKIHHHHHHMDFLDFEKVFSFYSKATKKGFSPFFVPALEKAEEPAGNFFLDRKGNLFSIREDFTKTVLNHRKRYSPDSQIKVWYADFVYRYSGSDLVAEYQLGLEKVPRNSLDDSLEVLEIIVESASEFFEGPVIVEIGHTGVYEDLLKEIPKDLHEKVLNLIDTKNLAEIEFLSHMKKIDLSRVEKIIEDSIYRRSPEHLKTMDLPLSVREDLLSASSFLQEKFPTVSVEIDLTLARTIEEYCGLIFTIYDTSSSRLVAAGGEYTVNGEKGVGGSIFLEGKTC	not soluble
